Here are results for 84 variants from the RNAGym collection of RNA variant scans (doi:10.1093/molbev/msab373).

B1: Azoarcus group I ribozyme (parent)
chain: GUGCCUUGCGCCGGGAAACCACGCAAGGGAUGGUGUCAAAUUCGGCGAAACCUAAGCGCCCGCCCGGGCGUAUGGCAACGCCGAGCCAAGCUUCGGCGCCUGCGCCGAUGAAGGUGUAGAGACUAGACGGCACCCACCUAAGGCAAACGCUAUGGUGAAGGCAUAGUCCAGGGAGUGGCGAAAGUCACACAAACCGG

In the data set the parent is B1. Nature of the data set: reverse-splicing fitness (ratio to wild type); higher = more active; in vitro selection; Mg2+ level not given. The method, boiled down: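 An in vitro group I ribozyme library with randomized positions was T7-transcribed and gel-purified. In triplicate, 10 pmol RNA in EPPS pH 7.5 was reacted with 50 pmoles of a 30-nt RNA substrate for 1 h at 37 °C across several added MgCl2 levels (1–48 mM), then stopped with EDTA. Products were reverse transcribed from a substrate-complementary primer, PCR-amplified and sequenced (HiSeq 4000). Fitness is a variant's read proportion after selection over that before, normalised to wild type.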
Regarding C82U A111C A120G A145C C150G C169U, the reverse-splicing fitness worked out at 0.00662.

With C82U A111C A120G A145U C150G C169A, the reverse-splicing fitness came out at 0.00828.

For C82U A111C A120G A145U C150G C169G, the reverse-splicing fitness was determined as 0.00689.

C82U A111C A120G A145U C150G C169U: the reverse-splicing fitness was found to be 0.00734.

Regarding C82U A111C A120G A145G C150G C169A U176A, the reverse-splicing fitness is 0.0117.

Regarding C82U A111C A120G A145G C150G C169A U176C, the reverse-splicing fitness is 0.011.

On to C82U A111C A120G A145G C150G C169A U176G, for which the reverse-splicing fitness was found to be 0.00775.

As to C82U A111C A120G A145C C169G, the reverse-splicing fitness is 0.00924.

C82U A111C A120G A145C C169U: the reverse-splicing fitness came to 0.007.

In the case of C82U A111C A120G A145C C169A, the reverse-splicing fitness worked out at 0.0073.

Consider C82U A111C A120G A145G U176A, for which the reverse-splicing fitness is 0.0143.

On to C82U A111C A120G A145G U176C, for which the reverse-splicing fitness was 0.0199.

Take C82U A111C A120G A145G U176G: the reverse-splicing fitness stood at 0.00476.

As for C82U A111C A120G A145C C150U U176A, the reverse-splicing fitness came out at 0.00933.

C82U A111C A120G A145C C150U U176C: the reverse-splicing fitness turned out to be 0.00988.

For C82U A111C A120G A145C C150U U176G, the reverse-splicing fitness was 0.00354.

Regarding C82U A111C A120G A145G C150A C169G U176G, the reverse-splicing fitness was 0.00493.

On to C82U A111C A120G A145G C150A C169G U176A, for which the reverse-splicing fitness turned out to be 0.0146.

With C82U A111C A120G A145G C150A C169G U176C, the reverse-splicing fitness amounted to 0.0241.

Regarding C82U A111C A120G A145U C169A U176A, the reverse-splicing fitness is 0.00825.

For C82U A111C A120G A145U C169A U176G, the reverse-splicing fitness turned out to be 0.00418.

As for C82U A111C A120G A145U C169A U176C, the reverse-splicing fitness worked out at 0.01.

Take C82U A111C A120G A145U C150U U176C: the reverse-splicing fitness turned out to be 0.0178.

Turning to C82U A111C A120G A145U C150U U176G, the reverse-splicing fitness came to 0.00357.

As to C82U A111C A120G A145U C150U U176A, the reverse-splicing fitness is 0.013.

As to C82U A111C A120G A145U C150A C169U U176C, the reverse-splicing fitness was found to be 0.0106.

As for C82U A111C A120G A145U C150A C169U U176A, the reverse-splicing fitness was 0.0157.

For the variant C82U A111C A120G A145U C150A C169U U176G, the reverse-splicing fitness is 0.00435.

With C82U A111C A120G A145C C150U C169U U176C, the reverse-splicing fitness worked out at 0.0072.

With C82U A111C A120G A145C C150U C169U U176G, the reverse-splicing fitness is 0.00401.

Regarding C82U A111C A120G A145C C150U C169U U176A, the reverse-splicing fitness was 0.0137.

Take C82U A111C A120G A145C C169G U176A: the reverse-splicing fitness turned out to be 0.0216.

With C82U A111C A120G A145C C169G U176C, the reverse-splicing fitness amounted to 0.0122.

Regarding C82U A111C A120G A145C C169G U176G, the reverse-splicing fitness came to 0.00397.

In the case of C82U A111C A120G A145U C150U C169A U176A, the reverse-splicing fitness was 0.0111.

C82U A111C A120G A145U C150U C169A U176G: the reverse-splicing fitness was 0.00451.

For the variant C82U A111C A120G A145U C150U C169A U176C, the reverse-splicing fitness is 0.00758.

In the case of C82U A111C A120G A145U C169U U176A, the reverse-splicing fitness amounted to 0.0158.

As for C82U A111C A120G A145U C169U U176C, the reverse-splicing fitness worked out at 0.0112.

Regarding C82U A111C A120G A145U C169U U176G, the reverse-splicing fitness was 0.00369.

With C82U A111C A120G A145C C150G U176A, the reverse-splicing fitness stood at 0.00659.

For the variant C82U A111C A120G A145C C150G U176C, the reverse-splicing fitness was 0.0106.

Regarding C82U A111C A120G A145C C150G U176G, the reverse-splicing fitness was 0.00269.

C82U A111C A120G A145G C150A U176G: the reverse-splicing fitness worked out at 0.00528.

As to C82U A111C A120G A145G C150A U176C, the reverse-splicing fitness stood at 0.017.

C82U A111C A120G A145G C150A U176A: the reverse-splicing fitness turned out to be 0.0093.

On to C82U A111C A120G A145G C150U C169U U176G, for which the reverse-splicing fitness stood at 0.00449.

Consider C82U A111C A120G A145G C150U C169U U176C, for which the reverse-splicing fitness was 0.0131.

As for C82U A111C A120G A145G C150U C169U U176A, the reverse-splicing fitness worked out at 0.0152.

Consider C82U A111C A120G A145G C150A C169U U176C, for which the reverse-splicing fitness turned out to be 0.0153.

Turning to C82U A111C A120G A145G C150A C169U U176A, the reverse-splicing fitness amounted to 0.0158.

Turning to C82U A111C A120G A145G C150A C169U U176G, the reverse-splicing fitness was 0.00519.

As to C82U A111C A120G A145C C150U C169G, the reverse-splicing fitness stood at 0.00662.

In the case of C82U A111C A120G A145C C150U C169A, the reverse-splicing fitness worked out at 0.00786.

C82U A111C A120G A145C C150U C169U: the reverse-splicing fitness worked out at 0.00593.

In the case of C82U A111C A120G A145U C150A U176G, the reverse-splicing fitness turned out to be 0.00424.

Turning to C82U A111C A120G A145U C150A U176C, the reverse-splicing fitness stood at 0.0144.

Regarding C82U A111C A120G A145U C150A U176A, the reverse-splicing fitness worked out at 0.0119.

For C82U A111C A120G A145G C169A U176G, the reverse-splicing fitness worked out at 0.00456.

As to C82U A111C A120G A145G C169A U176C, the reverse-splicing fitness came out at 0.0272.

As to C82U A111C A120G A145G C169A U176A, the reverse-splicing fitness was 0.0193.

Take C82U A111C A120G A145U C169G U176C: the reverse-splicing fitness came to 0.0109.

As to C82U A111C A120G A145U C169G U176A, the reverse-splicing fitness is 0.00938.

Take C82U A111C A120G A145U C169G U176G: the reverse-splicing fitness is 0.00395.

As to C82U A111C A120G A145U C150A C169G U176G, the reverse-splicing fitness turned out to be 0.00431.

Regarding C82U A111C A120G A145U C150A C169G U176A, the reverse-splicing fitness stood at 0.0105.

In the case of C82U A111C A120G A145U C150A C169G U176C, the reverse-splicing fitness turned out to be 0.0126.

As to C82U A111C A120G A145G C150U C169A U176A, the reverse-splicing fitness is 0.0136.

Regarding C82U A111C A120G A145G C150U C169A U176G, the reverse-splicing fitness was found to be 0.00542.

On to C82U A111C A120G A145G C150U C169A U176C, for which the reverse-splicing fitness was 0.0142.

Turning to C82U A111C A120G A145U, the reverse-splicing fitness stood at 0.0159.

For the variant C82U A111C A120G A145G, the reverse-splicing fitness worked out at 0.0154.

Turning to C82U A111C A120G A145C C150U C169A U176A, the reverse-splicing fitness worked out at 0.00813.

C82U A111C A120G A145C C150U C169A U176C: the reverse-splicing fitness was determined as 0.00554.

Regarding C82U A111C A120G A145C C150U C169A U176G, the reverse-splicing fitness came to 0.00505.

As to C82U A111C A120G A145U C150U, the reverse-splicing fitness worked out at 0.0111.

Turning to C82U A111C A120G A145U C150A, the reverse-splicing fitness was found to be 0.00775.

For the variant C82U A111C A120G A145U C150G, the reverse-splicing fitness was 0.00658.

In the case of C82U A111C A120G A145G C169G, the reverse-splicing fitness amounted to 0.00926.

Consider C82U A111C A120G A145G C169U, for which the reverse-splicing fitness was determined as 0.00883.

Take C82U A111C A120G A145G C169A: the reverse-splicing fitness was 0.0105.

Regarding C82U A111C A120G A145U C150G C169A U176A, the reverse-splicing fitness was 0.0108.

As for C82U A111C A120G A145U C150G C169A U176C, the reverse-splicing fitness was determined as 0.00893.

Turning to C82U A111C A120G A145U C150G C169A U176G, the reverse-splicing fitness turned out to be 0.00541.
